Patent US20240317840A1 (Novartis, published 2024)
Residue numbers refer to the chain shown, from its start.

B1: NOV3540 (antibody, human IgG1, kappa, V domains shown)
VH: EVQLLESGGGLVQPGGSLRLSCAASGFTFSPHAMSWVRQAPGKGLEWVSAISDSGGSTHYADSVKGRFTISRDNSKNTLYLQMNSLRAEDTAVYYCARDDDAWSGYDYWFDYWGQGTLVTVSS
VL: DIQMTQSPSSLSASVGDRVTITCRASQSISPYLNWYQQKPGKAPKLLIYAADSLQSGVPSRFSGSGSGTDFTLTISSLQPEDFATYYCQQSYKIPLTFGQGTKVEIKR
notes: Full human IgG1 (kappa) expressed in CHO cells
B2: NOV3832 (antibody, human IgG1, lambda, V domains shown)
VH: EMQVLESGGGLVQPGGSLRLSCAASGFTFDNYAMSWVRQVPGKGLEWVSSISGSGGSTYYADSVKGQFTISRDNSKNTLYLQMNSLRAEDTAVYYCAKSSILSGGHARVYGIDVWGQGTTVTVSS
VL: QSALTQPPSVSVAPGQTARITCGGNNIGSQSVHWYQQKPGQAPILVVYDDTDRPSGIPARFSGSSSGSTATLTIGRVEAGDEADYYCQVWDSSSDHVVFGGGTKLTVLS
notes: Full human IgG1 (lambda) expressed in CHO cells
B3: NOV3357 (antibody, human IgG1, kappa, V domains shown)
VH: B1 VH with A102G
VL: B1 VL
notes: as for B1
B4: NOV2603 (antibody, human IgG1, kappa, V domains shown)
VH: QVQLVQSGAEVKKPGASVKVSCKASGYTFTSYYMHWVRQAPGQGLEWMGIISPSGGSTSYAQKFQGRVTMTRDTSTSTVYMELSSLRSEDTAVYYCARDWEGGDPYGYYYAFDYWGQGTLVTVSS
VL: not shown
notes: as for B1
B5: NOV3212 (antibody, human IgG1, kappa, V domains shown)
VH: B4 VH with Y32L, Y33E, S52E
VL: not shown
notes: as for B1

Biological target: T1, HBsAg AD serotype (Hepatitis B virus)
T1 construct: also called HBsAg serotype AD
Test: SPR epitope binning; competitor (1st, saturating Ab): HBC34
Protocol: (§1) Epitope binning of anti-HBsAg antibodies with the two major serotypes of HBsAg, AY and AD, was performed utilizing surface plasmon resonance (SPR) technology. […] Each pair of antibodies was tested for blocking one another's binding to their epitope on the antigen by subsequently applying one antibody as first (saturating) followed by the other as second (competing) antibody and vice versa. Saturating antibodies were applied at 500 nM for 120s. Competing antibodies utilized the same conditions but were supplemented with the first antibody at 500 nM to maintain saturation. Binding signals were corrected by subtracting the reference cell signal. Specific binding of the competing antibody in presence of the saturating antibody was calculated by subtracting a saturating antibody plus buffer reference signal. All signals were normalized to 100 RU of immobilized ligand. The specific binding signal obtained from the application as competing antibody was expressed as percentage of the binding signal obtained from the application of the same antibody as saturating (first) antibody, the signal of which was regarded 100% binding.

Binder | binding of second antibody
B1 | 111 % of its binding as first antibody
B2 | 176 % of its binding as first antibody

Biological target: T2, HBsAg AY serotype (Hepatitis B virus)
T2 construct: also called HBsAg serotype AY
Test: as above
Protocol: as §1

Binder | binding of second antibody
B1 | 102 % of its binding as first antibody
B2 | 113 % of its binding as first antibody

Biological target: T1, HBsAg AD serotype
Test: SPR epitope binning; competitor (1st, saturating Ab): CR8087
Protocol: as §1

Binder | binding of second antibody
B1 | 254 % of its binding as first antibody
B2 | 223 % of its binding as first antibody

Biological target: T2, HBsAg AY serotype
Test: as above
Protocol: as §1

Binder | binding of second antibody
B1 | 118 % of its binding as first antibody
B2 | 117 % of its binding as first antibody

Biological target: HBsAg of HBV genotype D, serotype ayw (Hepatitis B virus)
Test: cell-based or functional assay

Binder | Virus neutralization EC50
B3 | 0.056 nM
B1 | 0.085 nM
B4 | 0.14 nM
B5 | 0.11 nM
B2 | 0.26 nM

Biological target: T1, HBsAg AD serotype
Test: SPR Biacore T200, HBsAg particles immobilized, antibody as analyte, 1:1 fit;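 also: Anti-HBsAg antibodies assessed for binding against both major HBsAg serotypes, AY and AD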
Protocol: (§2) Binding affinity interaction (KD) of the anti-HBsAg antibodies with the two major serotypes of HBsAg, AY and AD, was determined utilizing surface plasma resonance (SPR) technology.

Binder | Kd
B3 | 0.18 nM
B1 | 0.39 nM
B4 | 15.5 nM
B5 | 1.1 nM
B2 | 0.22 nM

Biological target: T2, HBsAg AY serotype
Test: as above
Protocol: as §2

Binder | Kd
B3 | 0.11 nM
B1 | 0.25 nM
B4 | 3.1 nM
B5 | 0.6 nM
B2 | 0.4 nM

Biological target: HBsAg clinical mutation M133L (Hepatitis B virus)
Test: sandwich ELISA, captured mutant HBsAg from culture supernatant;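 also: Anti-HBsAg antibodies tested for binding to mutant HBsAg secreted by stably transfected cell lines, supernatant incubated 1 h on antibody-coated plates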
Protocol: (§3) The binding of anti-HBsAg antibodies to 4 well characterized vaccine and/or HBsAg clinical mutations of HBsAg (G145R, D144A, T126S, M133L) were analyzed by sandwich ELISA. […] Supernatant collected from HBsAg cell-culture derived clinical mutation stables (G145R, D144A, T126S, M133L) was allowed to bind antibody coated plates for 1 hour.

Binder | IC50
B3 | 0.67 nM
B1 | 0.091 nM
B4 | 0.072 nM
B5 | 0.012 nM
B2 | 0.034 nM

Biological target: HBsAg clinical mutation T126S (Hepatitis B virus)
Test: as above
Protocol: as §3

Binder | IC50
B3 | 0.22 nM
B1 | 0.063 nM
B4 | 0.06 nM
B5 | 0.012 nM
B2 | 0.034 nM

Biological target: HBsAg clinical mutation D144A (Hepatitis B virus)
Test: as above
Protocol: as §3

Binder | IC50
B3 | 2.1 nM
B1 | 0.16 nM
B4 | 1.34 nM
B5 | 0.079 nM
B2 | 0.99 nM

Biological target: HBsAg clinical mutation G145R (Hepatitis B virus)
Test: as above
Protocol: as §3

Binder | IC50
B3 | 5.5 nM
B1 | 0.25 nM
B4 | 0.33 nM
B5 | 0.033 nM
B2 | > 67 nM

Biological target: HBsAg clinical mutation M133L (Hepatitis B virus)
Test: sandwich ELISA, mutant HBsAg from cell supernatant captured on horse polyclonal anti-HBsAg, antibody titrated, absorbance 450 nm

Binder | EC50 (read off the curve)
B1 | ~0.08 nM

Biological target: HBsAg clinical mutation T126S (Hepatitis B virus)
Test: as above

Binder | EC50 (read off the curve)
B1 | ~0.08 nM

Biological target: HBsAg clinical mutation D144A (Hepatitis B virus)
Test: as above

Binder | EC50 (read off the curve)
B1 | ~0.2 nM

Biological target: HBsAg clinical mutation G145R (Hepatitis B virus)
Test: as above

Binder | EC50 (read off the curve)
B1 | ~0.3 nM

Biological target: HBsAg clinical mutation M133L (Hepatitis B virus)
Test: as above
Remark: another data set of the same source

Binder | EC50 (read off the curve)
B4 | ~0.07 nM

Biological target: HBsAg clinical mutation T126S (Hepatitis B virus)
Test: as above
Remark: another data set of the same source

Binder | EC50 (read off the curve)
B4 | ~0.06 nM

Biological target: HBsAg clinical mutation T126S (Hepatitis B virus)
Test: as above
Remark: another data set of the same source

Binder | EC50 (read off the curve)
B5 | ~0.02 nM

Biological target: HBsAg clinical mutation D144A (Hepatitis B virus)
Test: as above
Remark: another data set of the same source

Binder | EC50 (read off the curve)
B5 | ~0.1 nM

Biological target: HBsAg clinical mutation M133L (Hepatitis B virus)
Test: as above
Remark: another data set of the same source

Binder | EC50 (read off the curve)
B3 | ~0.1 nM

Biological target: HBsAg clinical mutation T126S (Hepatitis B virus)
Test: as above
Remark: another data set of the same source

Binder | EC50 (read off the curve)
B3 | ~0.1 nM

Biological target: HBsAg of HBV genotype C (DQ087960) (Hepatitis B virus)
Test: sandwich ELISA, captured HBsAg from culture supernatant
Protocol: (§4) The binding of anti-HBsAg antibodies to the 4 major genotypes (A-D) of HBV were analyzed by sandwich ELISA.

Binder | IC50
B3 | 0.016 nM
B1 | 0.1 nM
B4 | 3.6 nM
B5 | 0.068 nM
B2 | 0.015 nM

Biological target: HBsAg of HBV genotype B (AF 121245) (Hepatitis B virus)
Test: as above
Protocol: as §4

Binder | IC50
B3 | 0.017 nM
B1 | 0.059 nM
B4 | 1.5 nM
B5 | 0.045 nM
B2 | 0.02 nM

Biological target: T3, HBsAg of HBV genotype A (AY934772) (Hepatitis B virus)
T3 construct: captured from supernatant by horse polyclonal anti-HBsAg
Test: as above
Protocol: as §4

Binder | IC50
B3 | 0.03 nM
B1 | 0.1 nM
B4 | 2.3 nM
B5 | 0.23 nM
B2 | 0.05 nM

Biological target: HBsAg clinical mutation M133L (Hepatitis B virus)
Test: sandwich ELISA, mutant HBsAg from cell supernatant captured on horse polyclonal anti-HBsAg, antibody titrated, absorbance 450 nm
Remark: another data set of the same source

Binder | EC50 (read off the curve)
B2 | ~0.05 nM

Biological target: HBsAg clinical mutation T126S (Hepatitis B virus)
Test: as above
Remark: another data set of the same source

Binder | EC50 (read off the curve)
B2 | ~0.05 nM
